According to patent US8617548B2 (priority 2006, dated 2013):
Like-named read-outs stand apart in the source and are kept apart here.

Key:
B. anthracis = system: B. anthracis; parameters: species or system New Zealand White (NZW) rabbits; conditions: rabbit, in vivo
[1] = cynomolgus monkey, in vivo

| Molecule | Blood sample, B. anthracis positive culture, Study Day 34 (end of study) (B. anthracis) | Blood sample, B. anthracis positive culture, moribund euthanized or found dead (B. anthracis) | Tissue (spleen) sample, B. anthracis positive culture, Study Day 34 (end of study) (B. anthracis) | Tissue (spleen) sample, B. anthracis positive culture, moribund euthanized or found dead (B. anthracis) | bioavailability of IM anti-PA as compared to IV administration [1] | clearance (in words) [1] | volume of distribution at a steady-state (in words) [1] | AUC (0-inf) dose dependency (in words) ([1]; im, 10 mg/kg) | Blood sample, B. anthracis positive culture, Study Day 34 (end of study) (B. anthracis; iv) | Tissue (spleen) sample, B. anthracis positive culture, Study Day 34 (end of study) (B. anthracis; iv) |
| --- | --- | --- | --- | --- | --- | --- | --- | --- | --- | --- |
| C[C@H]1COc2c(N3CCN(C)CC3)c(F)cc3c(=O)c(C(=O)O)cn1c23 [Levofloxacin, levofloxacin, reference compound] | 0/4 | 8/8 | 0/4 | 7/8 |  |  |  |  |  |  |
| ETI-204 (antibody, chains of the INN, looked up, V domains shown) VH: QVQLQQSGPELKKPGASVKVSCKDSGYAFSSSWMNWVRQAPGQGLEWIGRIYPGDGDTNYNGKFQGRVTITADKSSSTAYMELSSLRSEDTAVYFCARSGLLRYAMDYWGQGTLVTVSS VL: DIQMTQSPSSLSASVGDRVTITCRASQDIRNYLNWYQQKPGKAVKLLIYYTSRLLPGVPSRFSGSGSGTDYSLTISSQEQEDIGTYFCQQGNTLPWTFGQGTKVEIR | 0/4 |  | 0/4 |  | 83% | lower clearance | small volume of distribution | linear by dose | 0/4 | 0/4 |
